According to article PMC5384801 (mAbs, 2016):

Molecular target: trimeric HIV-1 YU-2 gp140 Env (HIV-1 YU-2 (clade B), UniProt P35961, strain)
Test: ELISA

B1: 8C chimeric mAb (bovine V regions, human IgG1/lambda constant regions) (antibody, V domains shown)
VH: QVQLRESGPSLVKPSQTLSLTCTVSGFSLSRYDVNWVRQAPGKALEWVGVISGDGITGYNPALKSRLSITKDNSKSQLSLSVSSVTPEDTATYYCESWVCVGGRDDVCHSDWGQGLLVTVSS
VL: QAVLTQPTSVSVALGQTAKITCSGDLVDEQYTQWYQQKPGQGPVMVIYKDSERPSGISDRFSGSNSGKTATLTISGAQTEDEADYYCHSADSSHAVFGSGTTLTV
Q: Does B1 bind?
A: no binding
